The values below come from patent US12358963B2, “Regenerative polypeptides and uses thereof” (Juvena Therapeutics, Inc., priority 2019, dated 2025).

In assay [1] the test system is 12 weeks old mice. Kind of assay: Dexamethasone induced muscle atrophy, FGF17. It is filed as in vivo, mouse. The following applies: Dexamethasone 25 mg/kg i.p. 20 days; FGF17 0.5 mg/kg subcutaneous. As for the experimental part:
FIG. 17A) Experiment overview and groups. […] Muscle weight was assessed on Day 21. Forelimb grip strength and both limb grip strength were measured on Day 7, 13 and 21 FIG. 17B) TAs muscle weight over initial body weight shown as the percentage change from vehicle. ***p=0.0005, *p=0.0499. […] One way Anova corrected for multiple comparisons using Tukey method was used to compare data.
The experimental design is C57BL/6J male mice with daily administration of Vehicle, N=7; dexamethasone (25 mg/kg i.p.), N=6, or dexamethasone+treatment article, N=6, for 20 days. This design can be used to test any single factor identified and validated in in vitro assays or complex mixtures of 2 or more factors.
On day 21, animals are sacrificed, and animal weight recorded. 0.5 ml of blood is collected via cardiac puncture and processed to plasma for storage of plasma samples at −80° C. The animals are perfused with 1×PBS. After carefully dissecting the skin from the GA/TA muscles of each hind leg, photos are taken, followed by excision of exclusively the GA or TA muscle, weighing the muscles, then flash freezing in isopentane at −80 C.

Assay [2] concerns human chondrocyte. Description: Human chondrocyte proliferation (% EdU+). It is filed as cell-based. The following applies: 48h, vehicle 0.744. As for the experimental part:
Chondrocytes were cultured for 48h in the presence of FGF17 at indicated dose. FGF18 was added at 0.1 ug/mL as a positive control. Fresh media and FGF17 was added every 24h. Table of % EdU+ chondrocyte and p-values depicted. Mean∓S.D. (*p<0.05 by Tukey Honest Significant Difference T-test, n=2-3)

Assay [3] has as its system human myoblast. Description: Human myoblast proliferation (nuclei counts, EdU counts). In kind it is cell-based. As to conditions: FGF17 0.1 ug/mL, 72h; FM 205. The protocol: FIG. 5A) Bar graph quantitation of % EdU+ mouse myoblast in response to BMP7. Myoblast were cultured 48h in the presence of BMP7 at indicated dose. Fresh media and BMP7 was added every 24h, followed by 2 hour EdU pulse and fixation. Mean∓S.D. Significant p-values (Vehicle˜BMP7 0.025 ug/mL: 1.21E-07, Vehicle˜BMP7 0.075 ug/mL: 8.05E-07, Vehicle˜BMP7 0.2255 ug/mL: 3.37E-03, Vehicle˜BMP7 0.9 ug/mL: 4.99E-02). FIG. 5B) Bar graph quantitation of % EdU+ human myoblast (person) in response to BMP7. Myoblast were cultured 72h in the presence of BMP7 at indicated dose. Cells were pulsed with EdU for 4 hours before fixation. Mean∓S.D. Significant p-values (Vehicle˜BMP7 1.56 ng/mL: 0.04). (*p<0.05 by Welch's One-Tailed T-test, n=2)
Bar graph of total EdU+ mouse myoblast cells compared per condition. Myoblast were cultured 48h in the presence of indicated factors. Fresh media and factors were added every 24h, followed by 2 hour EdU pulse and fixation. Mean∓Standard Deviation(SD) Table quantitation of EdU counts per field and p-values for mouse assay (*p<0.05 by Student's One-Tailed T-Test of increased activity, n=3-6, Synergy values <1 are evidence of effect). Bar graph of total EdU+ human myoblast cells per condition. Myoblast were cultured 72h in the presence of indicated factors, followed by 4 hour EdU pulse and fixation. Fresh media and factors were added every 24h. Mean∓Standard Deviation(SD). Table quantitation of +EdU counts and p-values for human assay. (*p<0.05 by Student's One-Tailed T-Test of increased activity, n=3-6, Synergy values <1 are evidence of effect)

Assay [4] deals with mouse myoblast cell lines. Kind of assay: Myogenic gene RNA expression in mouse myoblasts by real-time qPCR. It is filed as cell-based. As to conditions: 48h in fusion media. As for the experimental part: Myogenic gene RNA expression (fold change to FM) in response to vehicle (FM) in mouse myoblast cell lines monitored by real-time qPCR. Myoblast were cultured 48h in fusion media. Mean±SD. n=3. (Y,Z) Differential induction of myogenic gene expression by FGF17 in human myoblast myoblasts. Quantitation table of myogenic gene RNA expression (fold change to FM-fusion media (DMEM+2% horse serum)) in response to FM or rh-FGF17 in aged human myoblast cell lines by real-time qPCR. Myoblast were cultured (B) 48 hours or (C) 72 hours in FM. Mean∓SD. n=3.
RNA was isolated from each well (RNeasy Mini Kit, Qiagen) and cDNA was obtained by reverse-transcription (High Capacity Reverse Transcription Kit, Thermo Fisher Scientific). Real-time quantitative PCR was performed using QuantStudio3 (Thermo Fisher).

B1: FGF17: FGF17 polypeptide, FGFR agonist (protein, listed as Homo sapiens)
chain: TQGENHPSPNFNQYVRDQGAMTDQLSRRQIREYQLYSRTSGKHVQVTGRRISATAEDGNKFAKLIVETDTFGSRVRIKGAESEKYICMNKRGKLIGKPSGKSKDCVFTEIVLENNYTAFQNARHEGWFMAFTRQGRPRQASRSRQNQREAHFIKRLYQGQLPFPNHAEKQKQFEFVGSAPTRRTKRTRRPQPLT
With B1, in assay [1], the “Muscle atrophy (muscle weight, forelimb and both limb force)” value is on record as “Protects Against Dexamethasone Induced Muscle Atrophy”. The “% EdU” value in assay [2] (0.1 ug/mL) is on record as 4.675%; in assay [2] (0.20 ug/mL), 9.085%; in assay [2] (0.40 ug/mL), 16.773%. The “Ave. + EdU Counts” value in assay [3] was 349. For the same molecule, the “Myf5 RNA expression (fold change to FM), Mean” value in assay [4] (FM 1.002) is 1.376. Further, the “Myod1 RNA expression (fold change to FM), Mean” value in assay [4] (FM 1.002) is on record as 1.230. For the same molecule, in assay [4] (FM 1.011), the “Pax7 RNA expression (fold change to FM), Mean” value is 6.118.
